Substrate in data set [1]: N[C@@H](CS)C(=O)O
The data set can be described thus: purified protein. To be noted: co-substrate L-His; 23 °C.

Substrate in data set [2]: N[C@@H](Cc1c[nH]cn1)C(=O)O
Put plainly: purified protein. Conditions: co-substrate L-Cys.

Substrate in data set [3]: C[N+](C)(C)[C@@H](Cc1cnc[nH]1)C(=O)[O-]
The data set can be described thus: O2 consumption, NeoFoxy oxygen electrode. To be noted: co-substrate L-Cys, 23 °C. The data set is classed as biochemical, Hydrogenimonas thermophila.

Substrate in data set [4]: N[C@@H](CS)C(=O)O
The data set can be described thus: O2 consumption, NeoFoxy oxygen electrode. It counts as biochemical, Hydrogenimonas thermophila. To be noted: co-substrate L-His, 23 °C.

Substrate in data set [5]: N[C@@H](Cc1c[nH]cn1)C(=O)O
Put plainly: O2 consumption, NeoFoxy oxygen electrode. It counts as biochemical, Hydrogenimonas thermophila. Conditions: co-substrate L-Cys, 23 °C.

B1: OvoATh2 (Hydrogenimonas thermophila; Y399F) (protein)
chain: NKILLRPLLLKQKNPENLRQLIKKSFHRTFDTFESLFSMLRNDEAFYNRPEPLRHPHIFYFGHTAVFFINKLILSKIIDTRINAKMESIFAIGVDEMSWDDLNDDHYEWPSVEETRLYRNRVREVVDNLINTLPLELPITWDSPWWIILMGIEHERIHIETSSVLIRQTDISLVLPQPEWSKCNVSGKAPENELLFVPGGEIEIGKYKSDDYYGWDNEYGKHKTVIPDFKASKYLVSNGEFMEFVKDGGYENDLWWEEEGLAWRNFKKAKHPIFWIPFKNEYRYRTLTEIVDMPLDWPVDVNYHEAKAFCNWLSAKKGKPIRLPVEDEWYRLKEYCNVPDVSKWDEKAPANINLEHYASACPVTQFSFGNFYDVIGNVWQWTETPIYPFNGFKIHPIFDDFSTPTFDNRHNLIKGGSFISTGNEILASSRYAFRRHFFQHAGFRYVESSYKEKINSSGYESDTQVSQYCEFGWGDRYFGIENYPKRCAKICIEVTEGKPRKKALDVGCAIGRSTLELATSFESVTGLDFSARFIEMAERMRKDGSIRYTITTEGELVEYKEATLPKRLAKVVDRVEFWQADACNLKPIFTGYDLVFAGNLIDRLYDPAKFLNDIGKRINSGGMLILTSPYTWLEEFTPKQKWLGGFKQDGEPVKSIDGLKSHLKDSFKLIETRDIEFVIRETARKFQHSVAQMSIWEKI
For orientation: Km means the substrate concentration at which the rate is half of its maximum. One may read the kcat/Km as the turnover number divided by the Michaelis constant. Turning to B1, in “purified protein [1]”, the Km came out at 575.2 ± 22.0 µM, the kcat stood at 361.2 ± 5.9 min^–1 and the kcat/Km stood at 10500 M⁻¹ s⁻¹. Also, in the data set “purified protein [2]” (23 °C), the Km is 38.2 ± 2.6 µM and the kcat is reported as 361.2 ± 5.9 min^–1.

B2: OvoATh2 (Hydrogenimonas thermophila) (protein)
chain: NKILLRPLLLKQKNPENLRQLIKKSFHRTFDTFESLFSMLRNDEAFYNRPEPLRHPHIFYFGHTAVFFINKLILSKIIDTRINAKMESIFAIGVDEMSWDDLNDDHYEWPSVEETRLYRNRVREVVDNLINTLPLELPITWDSPWWIILMGIEHERIHIETSSVLIRQTDISLVLPQPEWSKCNVSGKAPENELLFVPGGEIEIGKYKSDDYYGWDNEYGKHKTVIPDFKASKYLVSNGEFMEFVKDGGYENDLWWEEEGLAWRNFKKAKHPIFWIPFKNEYRYRTLTEIVDMPLDWPVDVNYHEAKAFCNWLSAKKGKPIRLPVEDEWYRLKEYCNVPDVSKWDEKAPANINLEHYASACPVTQFSFGNFYDVIGNVWQWTETPIYPFNGFKIHPIYDDFSTPTFDNRHNLIKGGSFISTGNEILASSRYAFRRHFFQHAGFRYVESSYKEKINSSGYESDTQVSQYCEFGWGDRYFGIENYPKRCAKICIEVTEGKPRKKALDVGCAIGRSTLELATSFESVTGLDFSARFIEMAERMRKDGSIRYTITTEGELVEYKEATLPKRLAKVVDRVEFWQADACNLKPIFTGYDLVFAGNLIDRLYDPAKFLNDIGKRINSGGMLILTSPYTWLEEFTPKQKWLGGFKQDGEPVKSIDGLKSHLKDSFKLIETRDIEFVIRETARKFQHSVAQMSIWEKI
Consider B2, for which, in data set [3], the Km is 61.9 ± 3.5 µM and the kcat is on record as 127.2 ± 1.5 min^–1. Further, in data set [4], the Km was determined as 278.6 ± 9.0 µM, the kcat worked out at 589.0 ± 3.5 min^–1 and the kcat/Km stood at 35000 ± 1500 M⁻¹ s⁻¹. Besides, in data set [5], the Km amounted to 585.1 ± 28.0 µM and the kcat is listed as 589.0 ± 3.5 min^–1.

B3: OvoATh2 (Hydrogenimonas thermophila; Y399F/Y61F) (protein)
chain: NKILLRPLLLKQKNPENLRQLIKKSFHRTFDTFESLFSMLRNDEAFYNRPEPLRHPHIFFFGHTAVFFINKLILSKIIDTRINAKMESIFAIGVDEMSWDDLNDDHYEWPSVEETRLYRNRVREVVDNLINTLPLELPITWDSPWWIILMGIEHERIHIETSSVLIRQTDISLVLPQPEWSKCNVSGKAPENELLFVPGGEIEIGKYKSDDYYGWDNEYGKHKTVIPDFKASKYLVSNGEFMEFVKDGGYENDLWWEEEGLAWRNFKKAKHPIFWIPFKNEYRYRTLTEIVDMPLDWPVDVNYHEAKAFCNWLSAKKGKPIRLPVEDEWYRLKEYCNVPDVSKWDEKAPANINLEHYASACPVTQFSFGNFYDVIGNVWQWTETPIYPFNGFKIHPIFDDFSTPTFDNRHNLIKGGSFISTGNEILASSRYAFRRHFFQHAGFRYVESSYKEKINSSGYESDTQVSQYCEFGWGDRYFGIENYPKRCAKICIEVTEGKPRKKALDVGCAIGRSTLELATSFESVTGLDFSARFIEMAERMRKDGSIRYTITTEGELVEYKEATLPKRLAKVVDRVEFWQADACNLKPIFTGYDLVFAGNLIDRLYDPAKFLNDIGKRINSGGMLILTSPYTWLEEFTPKQKWLGGFKQDGEPVKSIDGLKSHLKDSFKLIETRDIEFVIRETARKFQHSVAQMSIWEKI
In the case of B3, in the data set “purified protein [2]”, the Km was 31.3 ± 4.0 µM and the kcat is listed as 14.8 ± 0.3 min^–1.

B4: OvoATh2 (Hydrogenimonas thermophila; Y61F) (protein)
chain: NKILLRPLLLKQKNPENLRQLIKKSFHRTFDTFESLFSMLRNDEAFYNRPEPLRHPHIFFFGHTAVFFINKLILSKIIDTRINAKMESIFAIGVDEMSWDDLNDDHYEWPSVEETRLYRNRVREVVDNLINTLPLELPITWDSPWWIILMGIEHERIHIETSSVLIRQTDISLVLPQPEWSKCNVSGKAPENELLFVPGGEIEIGKYKSDDYYGWDNEYGKHKTVIPDFKASKYLVSNGEFMEFVKDGGYENDLWWEEEGLAWRNFKKAKHPIFWIPFKNEYRYRTLTEIVDMPLDWPVDVNYHEAKAFCNWLSAKKGKPIRLPVEDEWYRLKEYCNVPDVSKWDEKAPANINLEHYASACPVTQFSFGNFYDVIGNVWQWTETPIYPFNGFKIHPIYDDFSTPTFDNRHNLIKGGSFISTGNEILASSRYAFRRHFFQHAGFRYVESSYKEKINSSGYESDTQVSQYCEFGWGDRYFGIENYPKRCAKICIEVTEGKPRKKALDVGCAIGRSTLELATSFESVTGLDFSARFIEMAERMRKDGSIRYTITTEGELVEYKEATLPKRLAKVVDRVEFWQADACNLKPIFTGYDLVFAGNLIDRLYDPAKFLNDIGKRINSGGMLILTSPYTWLEEFTPKQKWLGGFKQDGEPVKSIDGLKSHLKDSFKLIETRDIEFVIRETARKFQHSVAQMSIWEKI
In the case of B4, in the data set “purified protein [2]”, the Km was 50.9 ± 2.5 µM and the kcat turned out to be 23.4 ± 0.2 min^–1.

The values above are taken from PMC10696552.
